Assay results taken from article PMC11707020.

Molecular target: USP25 (UniProt Q9UHP3)
Assay: co-immunoprecipitation, western blot
Conditions: reference: HA-STAT3 wild type; sites Y705

STAT3 (from UniProt P40763) HA-STAT3 Y705F
binding against the reference: weaker
